{"source": "patent US7910111", "key": {"[1]": {"molecular_target": "Endogenous NSF of human aortic endothelial cells (HAEC) (human) (UniProt P46459)", "assay": "cell-based or functional assay"}, "[2]": {"molecular_target": "Recombinant RGS-(His)6-NSF (N-ethylmaleimide sensitive factor), wild-type (UniProt P18708)", "sequence (P18708 other isoform, or with tags, fused parts or gaps limits assumed)": "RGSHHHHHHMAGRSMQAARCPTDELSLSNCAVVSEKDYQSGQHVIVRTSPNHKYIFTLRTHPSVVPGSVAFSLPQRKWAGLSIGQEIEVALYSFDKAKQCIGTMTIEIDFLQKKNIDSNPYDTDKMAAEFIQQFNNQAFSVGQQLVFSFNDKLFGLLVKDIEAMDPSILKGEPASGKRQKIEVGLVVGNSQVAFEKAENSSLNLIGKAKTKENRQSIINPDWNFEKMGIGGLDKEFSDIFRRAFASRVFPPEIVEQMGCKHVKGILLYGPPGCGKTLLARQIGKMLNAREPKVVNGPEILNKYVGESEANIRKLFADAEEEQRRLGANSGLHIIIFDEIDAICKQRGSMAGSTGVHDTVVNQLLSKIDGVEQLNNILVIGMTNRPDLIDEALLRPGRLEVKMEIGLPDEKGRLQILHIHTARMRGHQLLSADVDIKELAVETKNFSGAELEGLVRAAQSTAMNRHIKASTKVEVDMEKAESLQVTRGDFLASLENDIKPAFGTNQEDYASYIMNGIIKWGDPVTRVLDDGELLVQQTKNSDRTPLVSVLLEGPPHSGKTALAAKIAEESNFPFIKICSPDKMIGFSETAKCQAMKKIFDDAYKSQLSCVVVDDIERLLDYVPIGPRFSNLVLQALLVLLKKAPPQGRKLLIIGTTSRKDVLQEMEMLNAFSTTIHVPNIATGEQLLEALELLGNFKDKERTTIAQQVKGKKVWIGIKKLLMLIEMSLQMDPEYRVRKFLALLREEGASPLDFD", "assay": "cell-based or functional assay"}}, "data": [{"substance": "TAT-NSF81 (peptide)", "values": [{"measurement": "IC50% of endothelial exocytosis (vWF release)", "setting": "[1]", "value": "1 to 10", "unit": "µM"}, {"measurement": "IC50% of NSF ATPase activity", "setting": "[2]", "value": "1 to 10", "unit": "µM"}]}]}
